Laboratory results: the DeepSol protein solubility set

Test: soluble on expression in E. coli; label from the status in PepcDB or PDB records

Soluble on expression in E. coli, not soluble:
MGEHKQNLSLQDMTHSDTGQIAYLKKVCTDDLAKNFPDLPPMTPGITVWALFGETGYPIILSDERSIALAGANEHELQIVTLH, APYRYLAAGAADVISNLSAVKDWKLAHRLKGEEFSSSAAAMSEYSAQEVLSQINEIKKYEESSVWLVTKNILASGTAMAIAGNSRPGSGSEHLFAHALEAAGVENMLHGEMCAMGTVISMYLHDENWQQIKEAFDNLGISIRSRDYGIEDEIVINALRTAHAIRPERYTILGESDMSYDAAVKALELTGI, MGSDKIHHHHHHMSFDNLCKLLSEKHPATFASWVLGTPQTSVKVLKTELSIEPIRADYVTFLQLQGRILHLEFQTKLESTPPLPLRMLDYWVRLYRLYRLPITQVVVLLLPPAPGTVIETVFCVETTRHEYRVIRLWEENPELFLNEPALLPLAPLAATTQPQALLQQVVGKVNQLEPRQRPEISAYTQILAGLKYNQDLIRQLFREGMMRESVIYQEILAEGEQLGELRGRKAEGQLLILRQLTRRVGELPQEMLNRIETLSLEQLENLGEALLDFQAIADLEAWFGTLDIGVKMT, MEKVHAALTNPAYWDFIVKNLSPEPGEVHEFTEANGGAVATLFEVLPQELLPEAIRAMISQALKVKRVVTVGGLNGTSAPLSYTADVKGTPVDFKGEISMNGLGNTTTLSYANEITVNIPLMGAAIEPKVGQALADLFQNEGDLTSKWISKNL, MGSDKIHHHHHHMYQNDFVMPKSVYLLNHSVGRPLQSLRQAFDERFFLPWQGSGREPWGDWLSVVEDFRVQLARLFNSETRLFCPQVNLSSGLTKLVQSHSRLRRPGAVILMSENDFPSMGFALRQALPEAEIRFIPANLDVSLAEVWQAHLTDDIDLVFISHAYSNTGQQAPLDYLIPKVRELGALSLVDVAQAAGVLPLDLNALKPDFMLGSSVKWLCGGPGAAYLWVSAAQLVHCSPQDVGWFSHENPFEFDIHDFRYHDSALKFWGGTPSVAPFALAAHSIGYFAELGSDKVRQHNLMQLQRIWRQAGDALVSPSDAARCSGTAILDFGEDQQAVVEALTQADISLDVRKQGMRISPHIYNGEQDLQRLLEALAPFCR, MGSDKIHHHHHHMQHWAIFATDSYSGSLLGRMLAADIQPDEGQICNLPARVGWVSLGLQQALLERELAKDELDYGSTVEALVLECCQDSAQLPALLQKVGLEPLRQRGFRQLSTGETRRVMLARALAMLPQLLILDDPYAGLDAEHQGSLSELLCEVAAHSQLLVITSRQEELPPCISHVALFNSEMLKSGQHVHKLSAPMSIEQWHSHPVMAQLNALSASRSDELLALMERQRHNAEAFDPLVEIKNGKVEYVSCLIFKGVNWRINAGQHWQVRGPNGCGKSTLLGLILGDHPQCYSNDITLFGRPRGSGESIWQIKQRIGIVSSALHLQYRVSCSALDVLLSGFYDSIGLYHKPTKPQVDLAKEWLAILHMNEFASTGFKQLDYGQQRLLLIGRALIKQPLLLILDEPYQGLDFINRTLVMRALEMIAEHHLSQLLYVSHHREDALPAIKNFVDFIKQDNGYSVEVSHRPNELAQRMPIP, MADKLFSIRNYFFLGSYQSCIGEALKFSSKNEEEKQEKDVYLYRSYIAQGQAFIPLKEIPAATKSADLAAVRRYAEFRNNPAAKKKILAEVQEEVASRNIKSEIAAVLAATILNEADLSQDAFRAVSRFEGLEARASKVFILIKMNKRKLAIGEVKKMNQIDEDATLSQLANALVTSFGASGKVKDALYIYSEMSDKYGRTTDLEMHQAVVSILTQDYAAAEELLESALERDNKDADVLINSIVSAQLNEKDDDVVERFISQLKHEHPNHPWVIDFNEKEAEFDRVASDSRA, MNPDEPNFIWKDLNAVRDMGCIIENELSEVLPNKRYETYSIIGRSGEFNETFNDYEPFDYEIEDVTIPYENLAAVKRWLTGKSKLITHNDEDKYLDAICTMSKPTSFKNEWGVFYTFNVEFRCQPFKRKVNEQPKVIKTKSIEITDHGDEIAFPYIEINSKGGDITLNIGSNSLTILRTQSGIVTIDTEKGKAIQEGNPLFTRGSWIKTNPGQNKLNISGNFIEAKFWNRSAYL, MQRTLNVGVILCESFISNAQNPVNSYIKIYENVRMFEFAIKLLQESRINFQKILLYVLEEQIPLVEKVVAKYENCWVFRSKHNEVEDIYEAKGFIEDKYKIGLKSSKNQASSYYDNCCFVVLEACRPLTSKKVVKNVYEKAMIDGAAVAVLPFERQLVCGDNTKAVRQLKDKGNMNYWRQSSTWELQFPQAYTLNKLNQYHKNLFMKARNMLDLMNISAKNPLSIVDGSAYSFRVVTSLDFEILLGILRNG, MKLSIVIVNYRVPYFLEQCLLSVRKSAQGIDTEVWVVDNNSGDGSVEYLQSRFPEVHFVANEENVGFSRANNQAIRLSKGQYVLLLNPDTLIGESTLRTVVDFMDSKPNAGGLGVKMLNGHGRFLPESKRGFPSPWVSFCKLSGLNRLFPHSSRFNRYHLSYLSRDEVHKVEVLSGAFMLMRREALDKVGLLDERFFMYGEDIDLSYRLILGGYDNYYYPTPILHYKGESSSVSDVKYLRSFYGAMGLFFDKYYRNRMNPLLHGLINVVIKARTALALMLRSLRKVPAAEKPAKIFYWHPSEGEAAISAYHDRSHILINTDEVTCDRLLLTMEKLADRKHTFHLTNDTTKRVISP, MGGSHHHHHHGMASALAQVAMSTLPVEDEESSESRMVVTFLMSALESMCKELAKSKAEVACIAVYETDVFVVGTERGRAFVNTRKDFQKDFVKYCVEEEEKAAEMHKMKSTTQANRMSVDAVEIETLRKTVEDYFCFCYGKALGKSTVVPVPYEKMLRDQSAVVVQGLPEGVAFKHPENYDLATLKWILENKAGISFIIKRPFLEPKKHVGGRVMVTDADRSILSPGGSCGPIKVKTEPTEDSGISLEMAAVTVKEESEDPDYYQYNIQGSHHSSEGNEGTEMEVPAEG, LGIAGLRYTFTFAVATAPSELLNITWYSAVSAAFNGALKFSITPLLPLGPITDERVEVSITALTPLSGVRSTSTALTPVRLCSAFAILFTDTKAEKLEFFEDTTERVDGDAVIPHTVNSETAALPTPFS, MTDRKIRQISALLIEVYNGIMQVEDKYLRTTQFRDITVKEVHTIDAITMYDYKTTTAVARQLRLSPGTVTASIDKLVRKGYVVRLQSKDDQRVIRLGLTRRGRLIYRAHQSFHRQMTESFLNGMDPEQVDIIEHSLLNLQTFLQIADEKGDSNEND, MTYDALHVFDWIKARSGDNPVYIWGHSLGTGVATNLVRRLCERETPPDALILESPFTNIREEAKSHPFSVIYRYFPGFDWFFLDPITSSGIKFANDENMKHISCPLLILHAEDDPVVPFHLGRKLYNIAAPSRSFRDFKVQFIPFHSDLGYRHKYIYKSPELPRILREFLGKSEPERQH

Soluble on expression in E. coli, soluble:
AKVVCVLYDDPINGYPTSYARDDLPRIDKYPDGQTLPTPKAIDFTPGALLGSVSGELGLRKYLESQGHELVVTSSKDGPDSELEKHLHDAEVIISQPFWPAYLTAERIAKAPKLKLALTAGIGSDHVDLQAAIDNNITVAEVTYCNSNSVAEHVVMMVLGLVRNYIPSHDWARNGGWNIADCVARSYDVEGMHVGTVAAGRIGLRVLRLLAPFDMHLHYTDRHRLPEAVEKELNLTWHATREDMYGACDVVTLNCPLHPETEHMINDETLKLFKRGAYLVNTARGKLCDRDAIVRALESGRLAGYAGDVWFPQPAPNDHPWRTMPHNGMTPHISGTSLSAQTRYAAGTREILECYFEGRPIRDEYLIVQGGGLAGVGAHSYSKGNATGGSEEAAKYEKLDA, TPPPTQWSYLCHPRVKEVQDEVDGYFLENWKFPSFKAVRTFLDAKFSEVTCLYFPLALDDRIHFACRLLTVLFLIDDVLEHMSFADGEAYNNRLIPISRGDVLPDRTKPEEFILYDLWESMRAHDAELANEVLEPTFVFMRAQTDRARLSIHELGHYLEYREKDVGKALLSALMRFSMGLRLSADELQDMKALEANCAKQLSVVNDIYSYDKEEEASRTGHKEGAFLCSAVKVLAEESKLGIPATKRVLWSMTREWETVHDEIVAEKIASPDGCSEAAKAYMKGLEYQMSGNEQWSKTTR, AIARALESTPLTGDVDWKSPLGSRSTWARLREQTRHCTFYRTYCFKASLKQLEEVTEEHVTYVGDCAALPPSPFLCVLLAYDCCSPSREEVAAHLDCSKNVYWRAIVATWIRWKESRAEQVYQLLDPLYRDYRPIKVRQKDNSYHNSYLDVFIDQLLRYRCALVSLEEPFVLDVIPFPHLPPRYELEARGVLPQREYAAPADDDDDDDAVSRPRLQQ, MKRQWALEDFEIGRPLGKGKFGNVYLAREKQSKFILALKVLFKAQLEKAGVEHQLRREVEIQSHLRHPNILRLYGYFHDATRVYLILEYAPLGTVYRELQKLSKFDEQRTATYITELANALSYCHSKRVIHRDIKPENLLLGSAGELKIADFGWSVHAPSSRRTDLCGTLDYLPPEMIEGRMHDEKVDLWSLGVLCYEFLVGKPPFEANTYQETYKRISRVEFTFPDFVTEGARDLISRLLKHNPSQRPMLREVLEHPWITANSSKPSNCQNKESAAAALEHHHHHH, SNAMNDIILKSLSTLITEQRNPNSVDIDRQSTLEIVRLMNEEDKLVPLAIESCLPQISLAVEQIVQAFQQGGRLIYIGAGTSGRLGVLDASECPPTFGVSTEMVKGIIAGGECAIRHPVEGAEDNTKAVLNDLQSIHFSKNDVLVGIAASGRTPYVIAGLQYAKSLGALTISIASNPKSEMAEIADIAIETIVGPEILTGSSRLKSGTAQKMVLNMLTTASMILLGKCYENLMVDVQASNEKLKARAVRIVMQATDCNKTLAEQTLLEADQNAKLAIMMILSTLSKSEAKVLLERHQGKLRNALSK, MSLVFDTHLHTLFSTDSKMNIEEAIDAGEKKNLGIIITEHIDLNYPVKGEFVFDIDKYFKEYNKYRSNKVLLGVEIGMGEEIKEQNKSINDKYEFDYVLGSIHLLNGLDLYEKTIYKSSPKKEVFEMYFKTMLACLRCHEYIDSLAHIDYISRYAAYHDGEIYYNEYSDYIDEVLKFIVDREIVIEINTRRLNKKEVCENLMPIYKRYSELGGRFVTIGSDSHYKDSIGLNFKNALKMAENCNLKPVFFEKRLMKYAEGHHHHHH, ADPALADVCRTKLPSQAQDTLALIAKNGPYPYNRDGVVFENRESRLPKKGNGYYHEFTVVTPGSNDRGTRRVVTGGYGEQYWSPDHYATFQEIDPRC, MLTLLMCGGKGTRLGRGEKPLFEVCGMKLIDHSLLQYKDFDVIAITSPHTPATESYLAEKGVEVYRAAGKGYIEDYSEACRELAINEPVIVASADIVYIRDIAFDIVDAYMKTIKPALTVVMEGEPVGVNIIDSLLINTWQEEEIYSIEKDSVVNVNTVADVERAERLWTTMRKERGWQRDLEHHHHHH, MAFDISAQDPFSILIAGVDSREDTHAGRSDTLIVLTVNPKEESIKMLSIPRDTRTEIVGRGTDDKINHAYAFGGAQMTIDTVENFLDIPIDHYVSINMDGFTQLVDALGGVSVENSFAFSQNGYQFEEGEIFLETGDEALAYARMRKQDSRGDFGRNDRQRQIVEAVIKQSAQFSSITKAGAILDAVGESVRTDLQLDGMWELQSNYRGAAKNIEQLEITGEGTRINNIYYLIIPQEEIARVQGELKSHLELSLEHHHHHH, VGSEVSDKRTCVSLTTQRLPVSRIKTYTITEGSLRAVIFITKRGLKVCADPQATWVRDVVRSMDRKSNTRNNMIQTKPTGTQQSTNTAVTLTG, MTTETQADRTQQAVGRIIGSIGVVTTQTTGRHQGILTSWVSQASFTPPGIMLAIPGEFDAYGLAGQNKAFVLNLLQEGRSVRRHFDHQPLPKDGDNPFSRLEHYSTQNGCLILAEALAYLECLVQSWSNIGDHVLVYATVQAGQVLQPNGITLEHHHHHH
